Values quoted from earlier work in US10472401B2, “Peptides and combination of peptides for use in immunotherapy against ovarian cancer and other cancers” (immatics biotechnologies GmbH, priority 2015, dated 2019).

Tested on: ovarian cancer
Conditions: clinical studies

B1: abagovomab (antibody, chains of the INN, looked up, V domains shown)
VH: QVKLQESGAELARPGASVKLSCKASGYTFTNYWMQWVKQRPGQGLDWIGAIYPGDGNTRYTHKFKGKATLTADKSSSTAYMQLSSLASEDSGVYYCARGEGNYAWFAYWGQGTTVTVSS
VL: DIELTQSPASLSASVGETVTITCQASENIYSYLAWHQQKQGKSPQLLVYNAKTLAGGVSSRFSGSGSGTHFSLKIKSLQPEDFGIYYCQHHYGILPTFGGGTKLEIK
notes: anti-CA-125 antibody
  clinical results in ovarian cancer patients: promising results in phase II and III studies
